# The supplement of paper PMC10567573
# ± gives the standard deviation.
# Assay: protein stability index of a GFP-peptide fusion (GPS, HEK-293T) (PSI 1-6); higher = more stable
# Conditions: c terminus: a fixed tail appended
# 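Note: 24-mer peptide tiles fused after GFP, lentivirally expressed, FACS-sorted into six equal bins by GFP/DsRed ratio, decoded by Illumina sequencing, PSI is the read-weighted mean bin number.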
Sequence,protein stability index (treatment: DMSO),"protein stability index (treatment: MLN4924 1 uM, 8 h)"
MSSHLVEPPPPLHNNNNNCEENEQ [BNIP3L],5.56 ± 0.11,5.67 ± 0.11
MTDQQAEARSYLSEEMIAEFKAAF [TNNC2],4.22 ± 0.13,4.25 ± 0.16
MTKAQESLTLEDVAVDFTWEEWQF [ZNF649],3.36 ± 0.12,3.74 ± 0.44
MTLPLLRQTSTKAVQHFYNIKLEG [ESRRG],2.48 ± 0.18,2.44 ± 0.26
MTNHQLSTTEWNDETLYQEFNGLK [CHIT1],4.37 ± 0.4,4.56 ± 0.19
MVQQIQENSVEFEACLVAQCDALI [TRIM9],2.9 ± 0.35,2.97 ± 0.36
NAGLSSTAGLLREQVAQLKQKVMT [JUNB],3.42 ± 0.24,3.39 ± 0.42
NCIGIRDFALHYCLHHVHYLATEY [GAN],3.1 ± 0.51,3.32 ± 0.33
NDALSCEYECRRRMLMKRLDVTVQ [FAM98B],2.61 ± 0.24,2.78 ± 0.38
NFKAHVSPHEMLQAVVLCSKKTFQ [USP39],2.25 ± 0.25,2.26 ± 0.3
NFVRERTLDKRWRVRKEAMMGLAQ [PDS5B],2.8 ± 0.24,2.83 ± 0.39
NGDLSRSLSPSPLGSSAASTALER [FCHO1],4.78 ± 0.22,4.83 ± 0.37
NGFTPLHFAAASTHGALCLELLVN [ANKRD44],3.06 ± 0.71,2.95 ± 0.9
NGRACEMNGEECAEDLRMLDASGE [IKZF1],5.07 ± 0.51,5.36 ± 0.53
NGTAWTYHSQDELGGFSHWGRLTS [PKD2L1],2.38 ± 0.4,2.6 ± 0.2
NIIDIYKQESTRPEKKSDQPMCEE [TRIM55],5.05 ± 0.26,5.02 ± 0.052
NIYCLNCEVPTCSLCKVFGAHKDC [TRIM55],3.11 ± 0.35,3.21 ± 0.48
NKHLCYVFDSEKCVSIPDVVGWFV [GULP1],2.76 ± 0.88,2.13 ± 0.51
NKILQVFWEEHKASLGREESRAPS [CBY2],3.02 ± 0.13,3.09 ± 0.22
NKLTTLPSDFCGLTHLVKLDLSKN [LRRC59],2.37 ± 0.12,2.31 ± 0.14
NLLQYVRMPLLTPRYITDVIDAEP [KLHL12],2.29 ± 0.45,2.33 ± 0.26
NLQSLINNEIPDCYTFSVLITFDN [MCOLN1],2.93 ± 0.22,3.23 ± 0.74
NMCMGRTSRGKLGGQDSFESIESY [ETS1],3.612 ± 0.034,3.72 ± 0.49

Sequence,protein stability index (treatment: DMSO),"protein stability index (treatment: MLN4924 1 uM, 8 h)"
NMERIMKAQALRDNSTMGYMMAKK [HSP90AB1],3.38 ± 0.19,–
NMSREPFSTRALVLSILHATLPGI [SOAT2],3.18 ± 0.55,2.93 ± 0.62
NPIGHLPESLTKPDQVAPFTFLQP [ATF4],3.56 ± 0.11,3.8 ± 0.49
NPQALSPQFTGILQLLQSRTSRKF [INTS3],2.93 ± 0.22,2.98 ± 0.35
NREACRDLSGRRLRDVNHEKAMAE [SDE2],5.01 ± 0.12,4.87 ± 0.32
NRERVVSLIEDLQRELEIPEQQVD [ZNF449],5.13 ± 0.23,5.17 ± 0.16
NRPLSLKDQQTFARSVGLKWRKVG [TRADD],3.03 ± 0.15,3.17 ± 0.11
NRYGDVPCLDQTRVKLTKRSGHTQ [PTPN9],3.96 ± 0.4,4.36 ± 0.26
NSHLTSVPHWINSNTLGFGTEQAP [ETS2],3.42 ± 0.15,3.45 ± 0.21
NSPGAYRSHPDNAIPIKSWFSDPS [CTDNEP1],3.37 ± 0.23,3.4 ± 0.12
NSVNDQTKILVVNAAYFVGKWMKK [SERPINB5],2.3 ± 0.26,2.48 ± 0.5
NTFVRYLLKRIKKCCGMRNTDVSM [KCNK9],3.38 ± 0.59,3 ± 0.35
NVHATTATGDTALTYACENGHTDV [ANKRD17],4.82 ± 0.33,4.88 ± 0.19
NVRDRDSGRNGEVSLDISPDLPFQ [PCDHGC5],4.76 ± 0.42,4.59 ± 0.22
NWIELLSGETWNPLKLHYQLRNVR [GOLPH3],2.43 ± 0.73,2.36 ± 0.61
NWTVAFAPDGSYFAWSQGHRTVKL [WSB1],2.42 ± 0.53,2.47 ± 0.44
NYECNLYTFLYLVCISTKTQCSEE [FEM1B],3.11 ± 0.38,2.81 ± 0.4
PADIQAQFAISRELIRNIYNSFHK [SNX8],2.04 ± 0.29,2.24 ± 0.3
PADPTGNLGGGDPKGWRQLAQEAE [OAS1],5.17 ± 0.19,4.97 ± 0.18
PAGGLAPGGGRGALLDQIRQGIQL [WAS],4.7 ± 0.19,4.54 ± 0.76
PAPEAESKQTEKDPGVQELEALID [EFHC1],5.51 ± 0.2,5.57 ± 0.17
PAYKVSGDKNEEQVLNAIEAYTEH [ZER1],5.06 ± 0.17,5.02 ± 0.17
